Experiment [1] addresses T1, human PD-1 expressed on cells (human, UniProt Q15116 25-288).
T1 construct: whole, on cells; Treated as one molecule; also called PD-1 expressing Jurkat cells; human PD-1 transfected Jurkat cells
The experiment in a line: FACS competition binding on PD-1 expressing Jurkat cells; competitor: fluorescently labeled murine mAb BAP049; MFI of bound labeled mAb. Here is the method: The concentration of the murine mAb was determined by OD280 measurement, whereas the chimeric mAb concentrations in supernatants were determined with an ELISA using an IgG4 standard.

Experiment [2] addresses T2, cynomolgus PD-1 expressed on cells (cynomolgus, UniProt B0LAJ3 25-288).
T2 construct: also called cynomolgus T cells; cells transfected with cynomolgus PD-1
In words: FACS on cells transfected with cynomolgus PD-1.

The target of experiment [3] is T2, cynomolgus PD-1 expressed on cells. The experiment in a line: FACS on cynomolgus T cells.
Experiment [4] addresses human PD-1-Ig fusion protein (human, UniProt Q15116 25-167). The experiment in a line: ELISA. (In general: ELISA stands for enzyme-linked immunosorbent assay.)
The target of experiment [5] is T1, human PD-1 expressed on cells. In words: competition binding assay on human PD-1-expressing 300.19 cells, competitor PD-L1; competitor PD-L1.
The target is the same in experiment [6]. The experiment in a line: FACS blocking assay on PD-1-expressing 300.19 cells; blocked ligand at constant concentration: PD-L1-huIgG1 Fc fusion protein (legend paragraph 211 names 'PD-L1-Ig and PD-L2-Ig' for FIG. 8A); bound ligand detected with PE anti-human IgG F(ab')2. Here is the method: Incubation was at 4° C. for 30 min. Bound ligand fusion proteins were detected with PE-conjugated F(ab′)2 fragment of goat anti-human IgG which doesn't recognize IgG4 mAbs (Southern Biotech 2043-09), and flow cytometry.

For experiment [7] the target is unchanged. The experiment in a line: FACS on human PD-1 transfected Jurkat cells.
Experiment [8] shares this target. The experiment in a line: competition binding assay on human PD-1-expressing 300.19 cells, competitor PD-L2; competitor PD-L2.

T1 sequence (Q15116 25-288): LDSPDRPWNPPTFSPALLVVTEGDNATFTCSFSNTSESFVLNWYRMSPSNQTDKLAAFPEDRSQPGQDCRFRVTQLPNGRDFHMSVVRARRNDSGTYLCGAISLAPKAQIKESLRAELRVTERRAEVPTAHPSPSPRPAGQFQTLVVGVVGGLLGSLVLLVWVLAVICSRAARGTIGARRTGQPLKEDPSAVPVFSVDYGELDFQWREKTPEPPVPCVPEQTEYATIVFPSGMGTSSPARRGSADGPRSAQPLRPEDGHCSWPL
T2 sequence (B0LAJ3 entry or part of it limits assumed): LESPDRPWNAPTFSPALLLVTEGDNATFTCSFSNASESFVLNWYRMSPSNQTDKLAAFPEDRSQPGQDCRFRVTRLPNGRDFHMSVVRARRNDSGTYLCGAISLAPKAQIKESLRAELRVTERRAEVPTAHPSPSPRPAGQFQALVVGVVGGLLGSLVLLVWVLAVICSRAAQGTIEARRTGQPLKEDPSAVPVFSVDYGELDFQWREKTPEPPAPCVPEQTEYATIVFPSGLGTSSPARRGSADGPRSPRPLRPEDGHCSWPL
Chain of human PD-1-Ig fusion protein (Q15116 25-167): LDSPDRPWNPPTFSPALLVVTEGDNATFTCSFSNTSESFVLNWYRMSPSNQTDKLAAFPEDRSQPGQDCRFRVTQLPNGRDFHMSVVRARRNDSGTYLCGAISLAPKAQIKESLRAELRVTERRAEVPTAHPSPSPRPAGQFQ

B1: chimeric antibody BAP049-chi (Ser) (antibody, human IgG4 S228P, kappa, V domains shown)
VH: QVQLQQSGSELVRPGASVKLSCKASGYTFTTYWMHWVRQRPGQGLEWIGNIYPGTGGSNFDEKFKNRTSLTVDTSSTTAYMHLASLTSEDSAVYYCTRWTTGTGAYWGQGTTVTVSS
VL: DIVMTQSPSSLTVTAGEKVTMSCKSSQSLLDSGNQKNFLTWYQQKPGQPPKLLIFWASTRESGVPDRFTGSGSVTDFTLTISSVQAEDLAVYYCQNDYSYPSTFGQGTKVEIKR
notes: also called Chi mAb (Ser)
As to B1, the binding result in experiment [1] is recorded as “binds”.

B2: murine anti-PD-1 monoclonal antibody BAP049 (antibody, V domains shown)
VH: QVQLQQSGSELVRPGASVKLSCKASGYTFTTYWMHWVRQRPGQGLEWIGNIYPGTGGSNFDEKFKNRTSLTVDTSSTTAYMHLASLTSEDSAVYYCTRWTTGTGAYWGQGTLVTVSA
VL: DIVMTQSPSSLTVTAGEKVTMSCKSSQSLLDSGNQKNFLTWYQQKPGQPPKLLIFWASTRESGVPDRFTGSGSVTDFTLTISSVQAEDLAVYYCQNDYSYPCTFGGGTKLEIK
notes: the murine constant regions are not; also called murine mAb BAP049; Mu mAb
As to B2, the Kd (as a rule, the concentration at which binding is half-saturated) in experiment [2] came out at 600 pM; in experiment [3] it was 400 pM; in experiment [4] it was 40 pM; in experiment [7], 60 pM. The half-maximal inhibitory concentration (IC50) – broadly, the concentration at which inhibition is half-maximal – in experiment [5] is 300 pM; in experiment [8], 900 pM. Besides, in experiment [6], the “IC50 (read off the curve)” value is ~0.6 µg/mL.

Values taken from US20180155427A1 (Novartis, published 2018).
